Data on two molecules can be found in patent US20200308246A1 (published 2020).

For assay [1], the target named is T1, MLL-pM-A9 peptide on HLA-B*07:02 (human).
T1 peptide: EPR[pS]PSHSA
The assay is described as follows: activation reporter or marker.

For assay [2], the target named is T2, MLL-pM-A7 peptide on HLA-B*07:02 (human).
T2 peptide: EPR[pS]PSASM
Briefly: activation reporter or marker.

Assay [3] addresses T3, MLL-pM-A2 peptide on HLA-B*07:02 (human).
T3 peptide: EAR[pS]PSHSM
Briefly: activation reporter or marker.

Assay [4] deals with T4, MLL-pM-A4 peptide on HLA-B*07:02 (human).
T4 peptide: EPRAPSHSM
The assay is described as follows: activation reporter or marker.

Assay [5] addresses T5, MLL-pM-A3 peptide on HLA-B*07:02 (human).
T5 peptide: EPA[pS]PSHSM
Briefly: activation reporter or marker.

Assay [6] deals with T6, MLL-pM-A5 peptide on HLA-B*07:02 (human).
T6 peptide: EPR[pS]ASHSM
Briefly: activation reporter or marker.

Assay [7] deals with T7, MLL-pM-A1 peptide on HLA-B*07:02 (human).
T7 peptide: APR[pS]PSHSM
Briefly: activation reporter or marker.

Assay [8] has as its target T8, MLL-pM-A6 peptide on HLA-B*07:02 (human).
T8 peptide: EPR[pS]PAHSM
The assay is described as follows: activation reporter or marker.

Assay [9] concerns the target T9, MLL-pM-A8 peptide on HLA-B*07:02 (human).
T9 peptide: EPR[pS]PSHAM
Briefly: activation reporter or marker.

Assay [10] has as its target T10, MLL (KMT2A), MLL-pP peptide on HLA-B*07:02 (human).
T10 peptide: RVR[pS]PTRSP
Briefly: multimer staining.

Assay [11] addresses T10, MLL (KMT2A), MLL-pP peptide on …. The assay is described as follows: activation reporter or marker.

Where no end group is shown, it is not given here. [ ]: non-standard residue; d: D form. pS = N[C@@H](COP(=O)(O)O)C(=O)O

B1: TCR0085 (TCR, V domains shown)
Valpha: KQEVTQIPAALSVPEGENLVLNCSFTDSAIYNLQWFRQDPGKGLTSLLLIQSSQREQTSGRLNASLDKSSGRSTLYIAASQPGDSATYLCAVMLWNQGGKLIFGQGTELSVKP
Vbeta: KAGVTQTPRYLIKTRGQQVTLSCSPISGHRSVSWYQQTPGQGLQFLFEYFSETQRNKGNFPGRFSGRQFSNSRSEMNVSTLELGDSALYLCASSLGRGYEQYFGPGTRLTVT
Turning to B1, the binding result in [1], in assay [2], in assay [3], in assay [4], in assay [5] and in assay [6] was “no recognition” each time. In addition, the binding result is listed as “no recognition” in [7], “no recognition” in assay [8], “no recognition” in [9] and “recognises” in assay [10].

B2: TCR0077 (TCR, V domains shown)
Valpha: TQLLEQSPQFLSIQEGENLTVYCNSSSVFSSLQWYRQEPGEGPVLLVTVVTGGEVKKLKRLTFQFGDARKDSSLHITAAQPGDTGLYLCAGYGGGSNYKLTFGAGTRLTVKP
Vbeta: EAQVTQNPRYLITVTGKKLTVTCSQNMNHEYMSWYRQDPGLGLRQIYYSMNVEVTDKGDVPEGYKVSRKEKRNFPLILESPSPNQTSLYFCASRLTGRVHGYTFGPGTRLTVL
As for B2, the binding result in assay [11] is “no recognition”; in assay [1] it was “no recognition”; in [2], “no recognition”; in [3] it was “no recognition”; in [4] it was “no recognition”; in assay [5], “recognises”. Moreover, the binding result in assay [6] was “no recognition”; in [7], “no recognition”; in assay [8], “no recognition”; in assay [9], “recognises”.
